Experimental data as given in US20150025225A1 (SHIONOGI, published 2015).

Key:
Baboon EL-C2 tag [1] = biological target: T1, Baboon EL-C2 tag (baboon, UniProt Q9Y5X9 21-500 (human entry), limits assumed); assay: cell-based or functional assay
T1 chain: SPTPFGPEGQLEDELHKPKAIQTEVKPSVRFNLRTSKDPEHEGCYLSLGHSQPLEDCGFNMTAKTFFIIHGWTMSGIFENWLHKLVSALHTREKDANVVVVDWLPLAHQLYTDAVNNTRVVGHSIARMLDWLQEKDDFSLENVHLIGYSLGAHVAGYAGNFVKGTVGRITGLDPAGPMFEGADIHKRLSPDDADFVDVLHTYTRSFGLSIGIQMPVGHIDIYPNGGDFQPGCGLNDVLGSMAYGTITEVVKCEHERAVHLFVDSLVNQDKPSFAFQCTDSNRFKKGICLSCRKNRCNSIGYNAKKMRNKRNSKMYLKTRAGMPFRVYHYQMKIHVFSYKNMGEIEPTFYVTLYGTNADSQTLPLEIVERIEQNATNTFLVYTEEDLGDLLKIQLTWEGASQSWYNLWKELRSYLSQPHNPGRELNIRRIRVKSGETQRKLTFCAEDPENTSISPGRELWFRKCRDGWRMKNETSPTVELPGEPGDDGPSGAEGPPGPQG

[2] = biological target: T2, cynomolgus monkey EL-C2 tag (cynomolgus monkey, UniProt Q9Y5X9 21-500 (human entry), limits assumed); assay: cell-based or functional assay
T2 chain: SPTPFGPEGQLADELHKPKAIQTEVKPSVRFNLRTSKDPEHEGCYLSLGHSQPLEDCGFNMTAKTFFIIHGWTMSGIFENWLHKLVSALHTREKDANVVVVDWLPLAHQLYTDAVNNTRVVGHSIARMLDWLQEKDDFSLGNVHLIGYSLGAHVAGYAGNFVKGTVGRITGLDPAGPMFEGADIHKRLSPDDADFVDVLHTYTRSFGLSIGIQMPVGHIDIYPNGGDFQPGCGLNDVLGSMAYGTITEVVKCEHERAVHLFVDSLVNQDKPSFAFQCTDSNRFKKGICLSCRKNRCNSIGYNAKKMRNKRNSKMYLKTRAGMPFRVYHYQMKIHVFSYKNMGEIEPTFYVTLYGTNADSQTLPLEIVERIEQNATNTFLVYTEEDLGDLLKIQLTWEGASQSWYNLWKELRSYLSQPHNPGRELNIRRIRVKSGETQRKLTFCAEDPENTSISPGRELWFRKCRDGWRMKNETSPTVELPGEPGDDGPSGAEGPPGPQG

[3] = biological target: T3, human EL[331-459]-mouse EL-C2 tag (human/mouse chimera, UniProt Q9WVG5 21-500 (mouse entry)); assay: cell-based or functional assay
T3 chain: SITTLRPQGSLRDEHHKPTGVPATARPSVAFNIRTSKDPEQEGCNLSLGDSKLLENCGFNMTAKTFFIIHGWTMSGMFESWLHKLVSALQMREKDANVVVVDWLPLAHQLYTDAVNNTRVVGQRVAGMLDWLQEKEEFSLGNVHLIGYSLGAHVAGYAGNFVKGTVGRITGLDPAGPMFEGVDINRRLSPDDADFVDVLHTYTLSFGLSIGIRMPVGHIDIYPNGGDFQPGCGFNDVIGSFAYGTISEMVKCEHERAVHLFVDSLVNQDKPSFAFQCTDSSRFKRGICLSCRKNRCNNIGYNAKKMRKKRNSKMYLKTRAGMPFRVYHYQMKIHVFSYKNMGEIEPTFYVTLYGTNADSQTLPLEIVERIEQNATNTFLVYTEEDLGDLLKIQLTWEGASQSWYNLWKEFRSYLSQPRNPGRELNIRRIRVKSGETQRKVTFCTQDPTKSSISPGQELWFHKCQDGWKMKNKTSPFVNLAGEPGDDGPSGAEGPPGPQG

rabbit EL-C2 tag = biological target: T4, rabbit EL-C2 tag (rabbit); assay: cell-based or functional assay
T4 chain: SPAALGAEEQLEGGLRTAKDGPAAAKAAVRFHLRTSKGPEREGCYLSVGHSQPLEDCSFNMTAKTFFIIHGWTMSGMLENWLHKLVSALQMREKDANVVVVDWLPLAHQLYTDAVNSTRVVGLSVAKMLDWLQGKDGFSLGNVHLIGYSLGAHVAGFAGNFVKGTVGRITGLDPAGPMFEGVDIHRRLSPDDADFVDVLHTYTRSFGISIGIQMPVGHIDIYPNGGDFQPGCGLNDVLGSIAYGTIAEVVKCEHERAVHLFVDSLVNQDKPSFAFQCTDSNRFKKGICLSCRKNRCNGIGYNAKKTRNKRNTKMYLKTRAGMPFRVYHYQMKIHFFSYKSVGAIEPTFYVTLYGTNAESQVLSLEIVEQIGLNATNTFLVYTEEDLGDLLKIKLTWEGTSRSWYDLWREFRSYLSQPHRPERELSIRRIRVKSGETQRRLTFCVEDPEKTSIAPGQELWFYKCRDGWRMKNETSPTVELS

[4] = biological target: T5, human EL-411-459 fragment (human); assay: sandwich ELISA with human EL fragment lysate, as Example 10
T5 construct: Used as HEK293 lysate
T5 chain: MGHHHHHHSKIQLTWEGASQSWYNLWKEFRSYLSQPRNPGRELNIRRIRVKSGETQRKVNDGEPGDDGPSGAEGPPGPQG

[5] = biological target: T2, cynomolgus monkey EL-C2 tag; assay: ELISA-type titration, A450 against antibody concentration; protocol not described in the text
Baboon EL-C2 tag [6] = biological target: T1, Baboon EL-C2 tag; assay: Biacore SPR; EL heparin extract captured by anti-C2-tag antibody on CM5, antibody as analyte, bivalent fit
Description: (§1) The binding affinities of anti-EL antibodies were measured using Biacore. Anti-C2-tag antibody was immobilized on a sensor chip CM5 (GE HealthCare) using amine-coupling and baboon EL heparin extract or cynomolgus monkey heparin extract diluted with HBS-P (GE Healthcare) was added and EL were captured on the sensor chip. Then anti-EL antibodies diluted with HBS-P were added and the binding affinities were calculated by bivalent fitting of BIAevaluation software (FIG. 9A-G).

[7] = biological target: T2, cynomolgus monkey EL-C2 tag; assay: as above
Description: as §1

Baboon EL-C2 tag [8] = biological target: T1, Baboon EL-C2 tag; assay: Biacore SPR; EL captured by anti-C2-tag antibody, antibody as analyte, bivalent fit; column head prints nM, kd/ka gives M
Description: as §1

[9] = biological target: T2, cynomolgus monkey EL-C2 tag; assay: as above
Description: as §1

Neutralizing activity_IC50 (Baboon EL-C2 tag [1]): 7.2 nM | Neutralizing activity_IC50 [2]: 5.9 nM | Neutralizing activity_IC50 [3]: 15 nM | Neutralizing activity_IC50 (rabbit EL-C2 tag): 391 nM | binding result [4]: no binding | EC50 (read off the curve) [5]: ~7 ng/mL | koff (Baboon EL-C2 tag [6]): 0.00029 s⁻¹ | kon (Baboon EL-C2 tag [6]): 110000 M⁻¹ s⁻¹ | koff [7]: 0.0001 s⁻¹ | kon [7]: 160000 M⁻¹ s⁻¹ | Kd (Baboon EL-C2 tag [8]): 2.6 nM | Kd [9]: 0.63 nM
B1: 41H8 antibody (antibody, IgG1, V domains shown)
VH: QVTLKESGPGILQPSQTLSLTCSFSGFSLSTYGMGVGWIRQPSGKGLEWLAHIWWNENKYYNTDLKSRLTISKDTSNNQVFLKIASVDTADTATYYCARIGPGVPFDYWGQGTTITVSS
VL: DIQMTQSPSSLSASLGGKVTITCKASQDINKFIAWYQHKPGKGPRLLIHYTSTLQPGIPSRFNGSGSGRDYSFTISNLEPEDIATYYCLQYDILTWTFGGGTKLEIK
